# Measured values from article PMC3253889 (Proteomics, 2011).
# What was measured:
# [1] = target: T1, human lymphotoxin alpha homo-trimer (LT-α3) (human, UniProt P01374); experiment: ELISA
# [2] = target: T1, human lymphotoxin alpha homo-trimer …; experiment: SPR
# human LT-α3-biotin = human LT-α3-biotin (human, UniProt P01374, biotin); experiment: ELISA
# Sequence of human LT-α3-biotin (P01374 35-205): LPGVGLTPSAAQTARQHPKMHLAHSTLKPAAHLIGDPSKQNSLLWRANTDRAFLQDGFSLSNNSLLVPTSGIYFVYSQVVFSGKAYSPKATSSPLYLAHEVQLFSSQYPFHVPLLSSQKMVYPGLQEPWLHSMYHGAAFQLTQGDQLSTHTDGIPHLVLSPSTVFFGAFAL
# T1 sequence (P01374 35-205): as above
Binder,EC50 [1],Kd [2],IC50 (human LT-α3-biotin)
"LT-3F12 anti-LT-α monoclonal antibody purified from mouse ascites (antibody, V domains shown) VH: QGQLQQSGAELMKPGASVKISCKATGYTFSSYWIEWVKQRPGHGLEWIGEISPGSGSTNYNEEFKGKATFTADKSSNTAYIQLSSLTSEDSAVYYCADGYHGYWGQGTTLTVSS VL: DIVMSQSPSSLAVSVGEKVTMSCKSSQSLLYSTNQKNFLAWYQQKPGQSPKLLIYWASTRDSGVPDRFTGSGSGTDFTLTISSVKAEDLAVYYCQQYYSYPRTFGGGTKLEIK",18 pM,300 pM,47000 pM
"LT-3F12 rescued recombinant chimeric antibody (antibody, V domains shown) VH: QGQLQQSGAELMKPGASVKISCKATGYTFSSYWIEWVKQRPGHGLEWIGEISPGSGSTNYNEEFKGKATFTADKSSNTAYIQLSSLTSEDSAVYYCADGYHGYWGQGTTLTVSS VL: DIVMSQSPSSLAVSVGEKVTMSCKSSQSLLYSTNQKNFLAWYQQKPGQSPKLLIYWASTRDSGVPDRFTGSGSGTDFTLTISSVKAEDLAVYYCQQYYSYPRTFGGGTKLEIK",37 pM,300 pM,–
